{
  "source": "patent EP4328238A1",
  "about": "(Ustav organicke chemie a biochemie AV CR, v.v.i., dated 2024)",
  "key": {"[1]": {"target": "Human C3(H2O) (human) (UniProt P01024)", "experiment": "SPR (BIAcore T200, 25°C); biotinylated ISG65-Avi immobilised, C3(H2O) as analyte"}, "[2]": {"target": "His-C3d N1134A (human) (UniProt P01024)", "sequence (P01024 996-1303, stated change not applied)": "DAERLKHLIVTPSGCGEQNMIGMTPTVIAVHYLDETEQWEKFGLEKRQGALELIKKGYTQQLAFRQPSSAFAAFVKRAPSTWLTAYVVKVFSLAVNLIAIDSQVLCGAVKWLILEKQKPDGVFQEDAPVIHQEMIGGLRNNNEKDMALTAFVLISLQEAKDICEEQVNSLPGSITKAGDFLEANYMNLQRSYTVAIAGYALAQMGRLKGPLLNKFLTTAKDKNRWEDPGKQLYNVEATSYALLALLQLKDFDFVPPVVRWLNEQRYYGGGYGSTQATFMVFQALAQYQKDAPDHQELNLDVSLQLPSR", "experiment": "SPR; ISG65-Avi immobilised, C3d mutant as analyte; the table prints 25"}, "[3]": {"target": "His-C3d N1134A (human) (UniProt P01024)", "experiment": "SPR (BIAcore T200, 25°C); biotinylated ISG65-Avi immobilised, C3d N1134A as analyte; column koff1"}, "[4]": {"target": "His-C3d N1134A (human) (UniProt P01024)", "experiment": "SPR (BIAcore T200, 25°C); biotinylated ISG65-Avi immobilised, C3d N1134A as analyte"}, "[5]": {"target": "His-C3d N1134A (human) (UniProt P01024)", "experiment": "SPR (BIAcore T200, 25°C); biotinylated ISG65-Avi immobilised, C3d N1134A as analyte; relative to wild type"}, "[6]": {"target": "Human C3(H2O) (human) (UniProt P01024)", "experiment": "SPR (BIAcore T200, 25°C); biotinylated ISG65-Avi immobilised, C3(H2O) as analyte; column kon1"}, "[7]": {"target": "His-C3d N1134A (human) (UniProt P01024)", "experiment": "SPR (BIAcore T200, 25°C); biotinylated ISG65-Avi immobilised, C3d N1134A as analyte; column kon1"}, "[8]": {"target": "Human C3(H2O) (human) (UniProt P01024)", "experiment": "SPR (BIAcore T200, 25°C); biotinylated ISG65-Avi immobilised, C3(H2O) as analyte; column koff1"}, "[9]": {"target": "T1, His-C3d (recombinant human C3d, thioester domain of C3) (human, UniProt P01024 996-1303)", "T1 construct": "domain: C3d; also called C3d Wt; TED; not shown: His-tag", "T1 sequence (P01024 996-1303 limits assumed)": "as the sequence (P01024 996-1303, stated change not applied) above", "experiment": "SPR (BIAcore T200, 25°C); biotinylated ISG65-Avi immobilised, C3d Wt as analyte; column koff1"}, "[10]": {"target": "T2, Human C3b (human, UniProt P01024 749-1663; P01024 23-667)", "T2 construct": "domain: α-chain of C3b;domain: β-chain of C3b", "T2 sequence (P01024 749-1663 limits assumed, chain 1 of 2)": "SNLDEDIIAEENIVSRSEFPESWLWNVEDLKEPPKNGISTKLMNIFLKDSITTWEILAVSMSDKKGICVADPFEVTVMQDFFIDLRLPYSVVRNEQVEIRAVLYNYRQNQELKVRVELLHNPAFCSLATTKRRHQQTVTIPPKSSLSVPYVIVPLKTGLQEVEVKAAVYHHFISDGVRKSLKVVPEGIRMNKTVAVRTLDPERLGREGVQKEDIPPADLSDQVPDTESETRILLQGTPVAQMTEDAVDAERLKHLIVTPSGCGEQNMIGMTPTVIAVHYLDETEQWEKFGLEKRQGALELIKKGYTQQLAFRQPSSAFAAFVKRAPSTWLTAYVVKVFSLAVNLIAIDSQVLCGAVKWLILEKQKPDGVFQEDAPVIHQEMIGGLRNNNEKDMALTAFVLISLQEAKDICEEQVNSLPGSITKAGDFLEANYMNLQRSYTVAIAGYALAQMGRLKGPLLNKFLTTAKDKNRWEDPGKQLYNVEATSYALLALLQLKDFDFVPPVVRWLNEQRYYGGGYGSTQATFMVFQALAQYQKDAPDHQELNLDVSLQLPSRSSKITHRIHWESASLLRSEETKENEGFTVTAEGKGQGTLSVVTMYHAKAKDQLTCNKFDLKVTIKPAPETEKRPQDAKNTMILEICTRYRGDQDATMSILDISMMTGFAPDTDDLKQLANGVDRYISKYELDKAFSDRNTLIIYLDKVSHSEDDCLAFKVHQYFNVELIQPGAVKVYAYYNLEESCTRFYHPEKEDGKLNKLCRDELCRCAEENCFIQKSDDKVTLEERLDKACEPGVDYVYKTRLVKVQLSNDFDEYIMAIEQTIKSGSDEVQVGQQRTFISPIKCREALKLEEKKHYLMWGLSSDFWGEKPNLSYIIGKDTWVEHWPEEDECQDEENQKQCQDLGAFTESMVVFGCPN", "T2 sequence (P01024 23-667 limits assumed, chain 2 of 2)": "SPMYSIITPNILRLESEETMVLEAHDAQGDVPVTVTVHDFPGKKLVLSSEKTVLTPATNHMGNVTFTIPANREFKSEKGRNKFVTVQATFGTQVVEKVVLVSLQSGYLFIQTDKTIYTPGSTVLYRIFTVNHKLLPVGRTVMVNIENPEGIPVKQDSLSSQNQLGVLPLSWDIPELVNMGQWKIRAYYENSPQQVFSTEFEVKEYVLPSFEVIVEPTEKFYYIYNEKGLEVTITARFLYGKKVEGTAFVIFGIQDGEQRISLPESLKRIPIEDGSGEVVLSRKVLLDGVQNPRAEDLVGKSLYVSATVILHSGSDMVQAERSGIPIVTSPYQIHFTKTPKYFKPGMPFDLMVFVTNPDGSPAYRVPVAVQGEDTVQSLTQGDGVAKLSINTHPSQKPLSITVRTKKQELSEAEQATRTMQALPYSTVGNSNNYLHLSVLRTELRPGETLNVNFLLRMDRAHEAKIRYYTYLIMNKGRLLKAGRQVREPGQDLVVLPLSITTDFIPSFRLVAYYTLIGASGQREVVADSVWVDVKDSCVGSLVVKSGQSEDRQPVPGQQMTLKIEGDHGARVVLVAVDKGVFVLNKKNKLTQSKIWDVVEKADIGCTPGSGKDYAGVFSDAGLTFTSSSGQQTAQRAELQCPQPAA", "experiment": "SPR (BIAcore T200, 25°C); biotinylated ISG65-Avi immobilised, C3b as analyte; column koff1"}, "[11]": {"target": "T2, Human C3b", "experiment": "SPR (BIAcore T200, 25°C); biotinylated ISG65-Avi immobilised, C3b as analyte; column kon1"}, "[12]": {"target": "T1, His-C3d (recombinant human C3d, …)", "experiment": "SPR (BIAcore T200, 25°C); biotinylated ISG65-Avi immobilised, C3d Wt as analyte; column kon1"}, "[13]": {"target": "T3, Native human complement factor 3 (C3) (human, UniProt P01024 23-667; P01024 672-1663)", "T3 construct": "Purified from normal human serum (Sigma-Aldrich); also called native C3; human C3", "T3 sequence (P01024 23-667 limits assumed, chain 1 of 2)": "as the sequence (P01024 23-667 limits assumed, chain 2 of 2) above", "T3 sequence (P01024 672-1663 limits assumed, chain 2 of 2)": "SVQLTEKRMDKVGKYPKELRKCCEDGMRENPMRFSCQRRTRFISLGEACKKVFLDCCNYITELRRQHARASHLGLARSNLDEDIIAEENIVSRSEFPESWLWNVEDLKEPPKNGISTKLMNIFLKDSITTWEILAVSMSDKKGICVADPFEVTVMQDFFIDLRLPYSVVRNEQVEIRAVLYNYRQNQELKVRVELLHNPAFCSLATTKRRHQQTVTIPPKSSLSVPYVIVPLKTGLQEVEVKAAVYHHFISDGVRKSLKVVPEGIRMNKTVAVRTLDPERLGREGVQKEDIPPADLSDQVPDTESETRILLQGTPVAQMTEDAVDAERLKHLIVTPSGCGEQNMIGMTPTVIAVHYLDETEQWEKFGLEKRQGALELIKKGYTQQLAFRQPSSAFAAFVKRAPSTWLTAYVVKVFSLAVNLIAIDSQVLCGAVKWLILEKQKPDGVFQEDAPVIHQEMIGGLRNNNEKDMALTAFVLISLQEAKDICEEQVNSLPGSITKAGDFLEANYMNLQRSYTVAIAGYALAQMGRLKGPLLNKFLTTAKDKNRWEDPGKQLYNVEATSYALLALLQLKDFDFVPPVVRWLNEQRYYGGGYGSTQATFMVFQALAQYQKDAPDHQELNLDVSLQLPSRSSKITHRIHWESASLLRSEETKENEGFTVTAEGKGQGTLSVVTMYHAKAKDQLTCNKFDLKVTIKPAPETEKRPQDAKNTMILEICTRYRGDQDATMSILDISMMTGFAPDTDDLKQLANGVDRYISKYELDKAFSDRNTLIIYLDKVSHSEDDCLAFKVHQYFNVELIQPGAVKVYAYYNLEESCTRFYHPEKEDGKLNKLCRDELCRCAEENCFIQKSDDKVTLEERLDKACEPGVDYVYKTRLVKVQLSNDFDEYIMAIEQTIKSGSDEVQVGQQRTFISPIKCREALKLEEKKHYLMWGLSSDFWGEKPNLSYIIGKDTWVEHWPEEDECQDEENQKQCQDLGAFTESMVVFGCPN", "experiment": "SPR (BIAcore T200, 25°C); biotinylated ISG65-Avi immobilised, C3 as analyte; column koff1"}, "[14]": {"target": "T4, His-C3d E1110A (human, UniProt P01024 996-1303)", "T4 construct": "domain: C3d; not shown: His-tag", "T4 sequence (P01024 996-1303 E1110A limits assumed)": "as the sequence (P01024 996-1303, stated change not applied) above, with E115A counted along it", "experiment": "SPR (BIAcore T200, 25°C); biotinylated ISG65-Avi immobilised, C3d E1110A as analyte"}, "[15]": {"target": "T5, His-C3d L1109A (human, UniProt P01024 996-1303)", "T5 construct": "domain: C3d; not shown: His-tag", "T5 sequence (P01024 996-1303 L1109A limits assumed)": "as the sequence (P01024 996-1303, stated change not applied) above, with L114A counted along it", "experiment": "SPR (BIAcore T200, 25°C); biotinylated ISG65-Avi immobilised, C3d L1109A as analyte"}, "[16]": {"target": "T3, Native human complement factor 3 (C3)", "experiment": "SPR (BIAcore T200, 25°C); biotinylated ISG65-Avi immobilised, C3 as analyte"}, "[17]": {"target": "T6, Human C3a (ANA domain of C3 when released) (human, UniProt P01024 672-748)", "T6 construct": "domain: C3a; also called free C3a; recombinant C3a", "T6 sequence (P01024 672-748 limits assumed)": "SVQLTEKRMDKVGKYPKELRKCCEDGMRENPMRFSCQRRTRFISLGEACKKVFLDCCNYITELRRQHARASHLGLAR", "experiment": "SPR (BIAcore T200, 25°C); biotinylated ISG65-Avi immobilised, C3a as analyte"}, "[18]": {"target": "T2, Human C3b", "experiment": "SPR (BIAcore T200, 25°C); biotinylated ISG65-Avi immobilised, C3b as analyte"}, "[19]": {"target": "T3, Native human complement factor 3 (C3)", "experiment": "SPR (BIAcore T200, 25°C); biotinylated ISG65-Avi immobilised, C3 as analyte; column kon1"}, "[20]": {"target": "T1, His-C3d (recombinant human C3d, …)", "experiment": "SPR (BIAcore T200, 25°C); biotinylated ISG65-Avi immobilised, C3d Wt as analyte"}, "[21]": {"target": "T7, His-C3d-Avi (N-terminal His-tag, C-terminal Avi-tag, biotinylated) (human, UniProt P01024 996-1303, site-specific biotin on the C-terminal Avi-tag)", "T7 construct": "domain: C3d; Immobilised ligand in SPR for the ISG65 mutants; not shown: N-terminal His-tag; C-terminal Avi-tag", "T7 sequence (P01024 996-1303 limits assumed)": "as the sequence (P01024 996-1303, stated change not applied) above", "experiment": "SPR (BIAcore T200, 25°C); biotinylated C3d-Avi immobilised, ISG65 Y293A as analyte"}},
  "data": [
    {"molecule": "His-ISG65 18-363-Avi (N-terminal hexa-histidine tag, C-terminal Avi-tag, biotinylated) (receptor)", "values": [
      {"measurement": "Kd", "setting": "[1]", "result": 18, "unit": "nM"},
      {"measurement": "binding affinity (% of wild type)", "setting": "[2]", "result": 24, "unit": "%"},
      {"measurement": "koff", "setting": "[3]", "result": 0.0542, "unit": "s⁻¹"},
      {"measurement": "Kd", "setting": "[4]", "result": 28.6, "unit": "nM"},
      {"measurement": "ISG65 binding (%)", "setting": "[5]", "result": 25, "unit": "%"},
      {"measurement": "kon", "setting": "[6]", "result": 942000, "unit": "M⁻¹ s⁻¹"},
      {"measurement": "kon", "setting": "[7]", "result": "1.89e+06", "unit": "M⁻¹ s⁻¹"},
      {"measurement": "koff", "setting": "[8]", "result": 0.017, "unit": "s⁻¹"}
    ]},
    {"molecule": "His-ISG65 18-363-Avi (N-terminal hexa-histidine tag, C-terminal Avi-tag, biotinylated) (receptor, site-specific biotin on the C-terminal Avi-tag, Immobilised ligand in SPR on a CAP chip; also called ISG65-Avi; biotinylated ISG65; not shown: N-terminal hexa-histidine tag of pET15b construct; C-terminal Avi-tag) LLVIGSEDNRVPGDKKLTKEGAAALCKMKHLADKVAKERSQELKDRTQNFAGYIEFELYRIDYWLEKLNGPKGRKDGYAKLSDSDIEKVKEIFNKAKDGITKQLPEAKKAGEEAGKLHTEVKKAAENARGQDLDDDTAKSTGLYRVLNWYCITKEERHNATPNCDGIQFRKHYLSVNRSAIDCSSTSYEENYDWSANALQVALNSWEDVKPKKLESAGSDKNCNIGQSSESHPCTMTEEWQTPYKETVEKLRELEDAYQRGKKAHDAMLGYANTAYAVNTKVEQEKPLTEVIAAAKEAGKKGAKIIIPAAAPATPTNSTKNDDSAPTEHVDRGIATNETQVEVGID", "values": [
      {"measurement": "koff", "setting": "[9]", "result": 0.0379, "unit": "s⁻¹"},
      {"measurement": "koff", "setting": "[10]", "result": 0.0212, "unit": "s⁻¹"},
      {"measurement": "kon", "setting": "[11]", "result": 262000, "unit": "M⁻¹ s⁻¹"},
      {"measurement": "kon", "setting": "[12]", "result": "5.24e+06", "unit": "M⁻¹ s⁻¹"},
      {"measurement": "koff", "setting": "[13]", "result": 0.0543, "unit": "s⁻¹"},
      {"measurement": "Kd", "setting": "[14]", "result": 15.7, "unit": "nM"},
      {"measurement": "Kd", "setting": "[15]", "result": 52.9, "unit": "nM"},
      {"measurement": "Kd", "setting": "[16]", "result": 129, "unit": "nM"},
      {"measurement": "Kd", "setting": "[17]", "result": 18100, "unit": "nM"},
      {"measurement": "Kd", "setting": "[18]", "result": 80.9, "unit": "nM"},
      {"measurement": "kon", "setting": "[19]", "result": 81800, "unit": "M⁻¹ s⁻¹"},
      {"measurement": "Kd", "setting": "[20]", "result": 7.2, "unit": "nM"}
    ]},
    {"molecule": "His-ISG65 18-363 Y293A (receptor, also called ISG65 Y293A) MGSSHHHHHHSSGLVPRGSHMLLVIGSEDNRVPGDKKLTKEGAAALCKMKHLADKVAKERSQELKDRTQNFAGYIEFELYRIDYWLEKLNGPKGRKDGYAKLSDSDIEKVKEIFNKAKDGITKQLPEAKKAGEEAGKLHTEVKKAAENARGQDLDDDTAKSTGLYRVLNWYCITKEERHNATPNCDGIQFRKHYLSVNRSAIDCSSTSYEENYDWSANALQVALNSWEDVKPKKLESAGSDKNCNIGQSSESHPCTMTEEWQTPYKETVEKLRELEDAYQRGKKAHDAMLGYANTAAAVNTKVEQEKPLTEVIAAAKEAGKKGAKIIIPAAAPATPTNSTKNDDSAPTEHVDRGIATNETQVEVGID", "values": [
      {"measurement": "binding result", "setting": "[21]", "result": "no binding (tested: ISG65 analyte 1.5-100 nM)"}
    ]}
  ]
}
